Reference: US20160297873A1 (VIRGINIA COMMONWEALTH UNIVERSITY, published 2016)

T1: biotinylated DENND1A.V2 specific 21 amino acid peptide QKSITHFAAKFPTRGWTSSSH (Biotin-CH22) (human, biotinylated (position not given))
T1 construct: Immobilised on streptavidin pre-coated plates; The label CH22 is not explained; also called Bio-CH-22; bio-peptide
T1 peptide: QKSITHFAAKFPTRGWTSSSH


Columns and labels:
[1] = molecular target: biotinylated DENND1A.V2 specific 21 amino acid peptide … (Biotin-CH22) (human); assay: QC phage ELISA-2, helper phage control, coating Biotin-CH22
[2] = molecular target: biotinylated DENND1A.V2 specific 21 amino acid peptide … (Biotin-CH22) (human); assay: QC phage ELISA-1, helper phage control, coating Biotin-CH22
[3] = molecular target: T1, biotinylated DENND1A.V2 specific 21 …; assay: ELISA (FIG. 11C)

| Molecule | phage ELISA signal [1] | phage ELISA signal [2] | binding result [3] |
| --- | --- | --- | --- |
| M13KO7 helper phage | 0.533 | 0.477 |  |
| human recombinant DENND1A.V2 specific IgG1 (V2 hmAB) (antibody, V domains shown, Expressed in 293E cells, Protein A purified; also called humanized monoclonal antibody; recombinant DENND1A.V2 IgG1) VH: EVQLLESGGGLVQPGGSLRLSCAASGFTFSSYAMSWVRQAPGKGLEWVSIIGTDGDDTNYADSVKGRFTISRDNSKNTLYLQMNSLRAEDTAVYYCAKAEASFDYWGQGTLVTVSS VL: DIQMTQSPSSLSASVGDRVTITCRASQSISSYLNWYQQKPGKAPKLLIYGASDLQSGVPSRFSGSGSGTDFTLTISSLQPEDFATYYCQQYDSAPSTFGQGTKVEIKR |  |  | binds |
